Values of other authors, collected in publication PMC8625536.

Target: Glu89 (UniProt position 105, IDALNENKVLV)
Details: Native folded protein; EF loop closed-to-open (Tanford) transition

For “beta-lactoglobulin (called BBL in the article) (Bos taurus)”, the pKa is given as about 7.3.
